The target of the assay is T1, human DR5 on the cell surface (Cos-7 cells transfected with full-length human DR5 cDNA); human cells that … (human, UniProt O14763 56-440).
T1 construct: whole, on cells; also called cell surface DR5; full-length DR5
Briefly: radioisotope labeled TRA-8 on a breast cancer line in vitro; reference soluble TRAIL.

B1: anti-human DR5 monoclonal antibody TRA-8 (mouse-mouse hybridoma TRA-8, ATCC PTA-1428) (antibody, mouse IgG1, kappa, V domains shown)
VH: EVMLVESGGGLVKPGGSLKLSCAASGFTFSSYVMSWVRQTPEKRLEWVATISSGGSYTYYPDSVKGRFTISRDNAKNTLYLQMSSLRSEDTAMYYCARRGDSMITTDYWGQGTTLTVSS
VL: DIVMTQSHKFMSTSVGDRVSITCKASQDVGTAVAWYQQKPGQSPKLLIYWASTRHTGVPDRFTGSGSGTDFTLTISNVQSEDLADYFCQQYSSYRTFGGGTKLEIKR
notes: also called monoclonal anti-DR5 antibody (clone: TRA-8); TRA-8 antibody
As for B1, the “fold higher binding activity than soluble TRAIL” value was 50 fold.

The values above are taken from patent US20030190687A1 (UAB RESEARCH FOUNDATION, published 2003).
